# Test results: the nanobody polyreactivity screen of Harvey et al. (2022)
# Test: yeast display, Sf9 membrane polyspecificity reagent, FACS + sequencing; frameworks hold sequencing errors
# In short: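 Sorting gates, low and high (top ~1%), were placed on anti-HA fluorescence to track expression and on streptavidin fluorescence to track reagent binding. A clone's polyreactivity label is taken from the gate it came out of. The reagent was 10% biotinylated, detergent-solubilized Sf9 membrane, applied for 1 hour at 4 °C to galactose-induced yeast display cells.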
row,Sequence,polyreactivity (PSR sort gate)
1,QVQLVESVGGLVQAGGSLRLSCAASGSIFGYNAMGWYRQAPGKERELVAVINASGASTYYADSVKGRFTISRDNAKNTVYLQMNSLKPEDTAVYYCAKDPFPFPGGDDWGQGTQVTVSS,low polyreactivity
2,QVQLVESGGGLVQAGGSLRLSCAASGIIFWTYTMGWYRQAPGKERELVAAISSGGSTTYADSVKGRFTISRDNSMNTVFLQMNWLKPEDTAVYYCAKRRQYQRSYNYWGKGTQVTVSS,low polyreactivity
3,QVQLVESGGGLVQAGGSLRLSCAASGSTFDYYAMGWYREAPGKERELVAGITSDGSTYYADSVKGRFTISRDNAKNTVYLQMNSLKPEDTAVYYCNKAPYHWPYEYWGQGTQVTVSS,low polyreactivity
4,QVQLVESGGGLVQAGGSLRLSCAASGITIYDYTMGWYRQAPGKERELVAVITSAGSTYYADSVKGRFTISRDNAKNTVYLQMNSLKPEDTAVYYCAAVIVSRGRKYRLDYWGQGTQVTVSS,high polyreactivity
5,QVHLVVSGGGLVQEGGSLSLRWAASGSTFEYYGMGWYTQAPGKERELVAAITVSGGSTYYADSVKGRFTISRDNEKNTVYLQIHSLKPEDSAVCYCAARPILYWYFRFDYWGQGTQVTVSS,low polyreactivity
6,QVQLVESGGGLVQAGGSLRLSCAASGSTFYAYTMGWYRQAPGKERELVAAITGRGGRTYYADSVKGRFTISRDNAKNTVYLQMNSLKPEDTAVYYCAAVYRKYPYSDYDYWGQGTQVTVSS,high polyreactivity
7,QVQHVESGGGLVQAGGSLRLSCAASGFTFYTYAMGWYRPAPGKERELVAAITSSGGSTYYADSVKGRFTISRDNAKNTVYLQMNSLKPEDTAVYYCNDRVRTQQRWVDYWGQGTQVTVSS,high polyreactivity
8,QVQLVESGGGLVQAGGSLRLSCAASGSTFYHNAMGWYRPAPGKERELVAAISRADVSTYYADSVKGRFTISRDNAKNTVYLQMNSLKPEDTAVYFGAAYWYGSQYKWRYDYWGQGTQVTVSS,low polyreactivity
9,QVQLVESGGGLVQAGGSLRLSCAASRFYTMGWYIPAPGKERELVAAISWSGGDTYYADSVKGRYTISRDNAKNTVYLQMNSLKQEDTAVYYCPKKTIGSYVHEPYYYWGQGNQVTVSS,low polyreactivity
10,QVQLVESGGGLVQAGGSLRLSCAASGSIFHYYAMGWYRQAPGKERELVAAISWSGGRTNYADSVKGRFTISRDNAKNTVYLQMNSLKPEDTAVYYCAAAERSYSGGGKIGKYYWGQGTQVTVSS,high polyreactivity
11,QVQLVESGGGLVQAGGSLRLSCAASGYIFVSNAMGWNRQEPGKERELVAPISGSGGSTYYADSVKGRFTISRDIAKNTVYLQMNSLKPEDTAVYSCAADYATVTWRGIAYDYWGQGTQVTVSS,low polyreactivity
12,QVQLVESGGGLVQAGGSLRLSCAASGIIFAFYAMGWYRQAPGKERELVATISKSGGRTYYADSVKGRFTISRDNAKNTVYLQMNSLNPEDTAVYYCAARIQYAFGADYYWGQGTQVTVSS,low polyreactivity
13,QVQLVESGGGLVQAGGSLRLSCAASGSISGRNTMGWYRQAPGKERELVAAISWSGGSTYYADSVKGRFTISRDNAKNTVYLQMNSLKPEDTAVYYCAARNWRGVGGGVGRYGYWGQGTQVTVSS,high polyreactivity
14,QVQLVESGGGLVQAGGSLRISCAASGSTFDRNAMGWYRQPPGKERELVAAISSSGGRTYYADSVKGRFTISRDNAKNTVYLQMNSLKPEDTPVYYCAAAFSLGMYWGKGTQVTVSS,high polyreactivity
15,QVQLVESGGGLVQAGGSLRLSCAASGSTFHSYVMGWYREAPGIERELVAAITSRGGSTNYADSVKGRFTISRDNAKNTVYFQMNSLKPEDTAVYYCAAEWLYPLDGGYPRPMDYWGQGTQVTVSS,low polyreactivity
16,QVQLVESGGGLVPAGGSLRLSCAASGRSLSRYTMGWYRQAPGKERELVAAISTSGSTYYADSVKGRFTISRDNAKNTVYLQMNSLKPEDTAVYFCNAVRRYLQYATGYAYWGQGTQVTVSS,high polyreactivity
17,QGQLVESGGGLVQAGGSLRLTCSASGSTFDSYGMGWYRQAPGKERELVASISSRGGSTYYADSVKGRFTISRDTAKNTVYLQMNSLKPEDTAVYYCAADWLSWFHGYGMYYWGQGTQVTVSS,low polyreactivity
18,QVQLVESGGGLVQAGGSLRISCAASGSSYGTYAMGWYRKAPGKERELVAAINFSGTSTYYADSVKGRFTISRDKAKHTVYLQMNRLKPEETADYYCAARFYWKYGRYDNWGQGTQVTVSS,high polyreactivity
19,QVQLVESGGGLVQAGGSLRLSCAASGRIFGTNAMGWYRQAPGKERELVADITSGGSTNYADSVKGRFTISRDNAKNTVYLQMNSLKPEDTAVYDCAADVIGDLRWYRDEYWGQGTQVTVSS,low polyreactivity
20,QVQLVESGVGLVQAGGSLRLSCAPSGRIFIYYAMGWYRQAPGKERELVATITASGDSTYYADSVKGRFTISRDNAKNTVYFQMNSLKPEDTAVYYCAADDGDYYEVDYWGQGTQVTVSS,low polyreactivity
21,QVQLVESGGGVVQAGGSLRLSCAASGRIFIWYDMGWYRQAPGKERELVAAITQSDDITYYADSVKGRFTISRDNAKNTVYLQMNSLKPEDTAVYYCAARVFETSTPYGYWGQGTQVTVSS,low polyreactivity
22,QVQLVESGRGLVQAGGSLRLSCAASGFIFLKFAKGWYRQAPGKERELVARITSTGGSTYYADSVKGRFTISRDNAKNTVYLQMNSLKPEDTAVYYCARDTVPSSDPWYYAWGGFEFDYWGQGTQVTVSS,low polyreactivity

row,Sequence,polyreactivity (PSR sort gate)
1,QVQLEESGGGLVQAGGSLRLSCAASGYTVVLYAMGCDIQAPGKERELVAVISWSGGSTYYADSVKGRFTISRDNAKNTVYLQMNSLKPEDTAVYYCAVSRYYNDYWGQGTQVTVSS,low polyreactivity
2,QVQLVESGGGLVQAGGSLRLSCAASGRTFPFNVMGWYRQAPGKERELVAAISSGGSTNYADSVKGRFTISRDNAKNTVYLQMNSLKPEDTAVYYCAAYSVYGRYGRTFYYWGQGTQVTVSS,high polyreactivity
3,QVQLVESGGGLVQAGGTLRLRCAASGRTFKDYAMGWYRQAPGKERELVAAISWSGGDTYYADSVKGRFTISRDNAKNTVYFQLNSLKPEDTAVYYCNADPSGVFFYSLEFDYWGQGTQVTVSS,low polyreactivity
4,QVQLVESGGGLVQAGGSLRLSCDASGSIFGGYAMGWYRQAHGKARELVAGISSGGSTYYADSVKGRFTISRDNAKNTVYLQMNSLKPEDTAVYYCATSTYAYRRNSYYYTRPRFGYCGQGTQVTVSS,high polyreactivity
5,QVQLVESGGGLVQAGGSLRLICAASGRTFWDYAMGWYRQAPGKERELVAAITASGTRTYYADSVKGRFTISRDNAKNTVFLQMNSLKPEDTAVYYCAAARIWWAHAYPTYVANDYWGQGTQVTVSS,high polyreactivity
6,QVQLVESGGGLVQAGGSLRLSCAASGSTFINYAMGWYRQAPGKERELVAAYADSVKGRFTISRDNAKNTVYLQMNRLKPEDTAVYDCNAVTGECGQGTQVTVSS,low polyreactivity
7,QVQLVESGGGLVQAGASLRLSRAASGLIFYRYAMGLYRPAPGKERELVAAITSGGSTYYADSVKGRFTISRDNAKNTVYLQMNSLKPEDTAVYYCAAFYVPTYYYSPYGYWGQGTQVTVSS,high polyreactivity
8,QVQLVESGGGLVQAGGSLRLSCAASGFIFGYYAMGWYRQAPRKERELVAAISQSTGSTYYADSVKGRFSNSRDNAKNTVYLQMNSLKPEDTAVYYCNAEGPEVTTWGYVYWDWGYGYWGQGTQVTVSS,low polyreactivity
9,QVQLVESGGGLVQARVSLRLSCPASGRIFARYALGSSRQAPGTEREFVAAISRGGSTKYADSEKGRFTISRDNAKNTVYLQMNSLKPEDTAVYYCARQLWGSAYGAYYAGDYWGQGTQVTVSS,low polyreactivity
10,QVQLQESGGGLVQAGGSLRPLCAAGGTIFVSVNMRLYRHAPGEEREFVASITQGATTNYADSLIGRFTISRDNAKNTVYLLMNCQKPEDTEVYYCAVHESGGITFTYWGQGTQVTVSS,high polyreactivity
11,QVQLVESGGGLVQAGGSLRLSCAASGSIFWYYAMGWYRQAPGKERELVAGITRGGSTSYADSVKGRFTISRDNAKKTVYLQMNSLKPEDTAVYYCAKRNPYSRYGYWGQGTQVTVSS,high polyreactivity
12,QVQLVESGGGLVQAGGSLRLSCAASGRIFDLYAMGWYRQAPGKERELVASITTIGGRTYYADSVKGRFTISRDNAKNTVYLQMNSLKPEDTAVYYCAKSRWLYTTRSGYDYWGQGTQVTVSS,high polyreactivity
13,QVQLVESGGGLVQAGGSLRLSCAASGSIFGRYAMGWYRQAPGKERELVANITSGDSTNYADSVKGRFTISRDNAKNTVYLQMNSRKPEDTAVYYCAAYRIGQYDYWGQGTQVTVSS,high polyreactivity
14,QVQHVESGGGLVQAGGRLRLSCAASGSIFVAYAMGWSRTAPGKERELVAAITYSAGSTYYADSVKGRITISRDNAKNTVYLQMNSLKPEDTAVYYCAADAMVFSFIGYEYWGQGTQVTVSS,low polyreactivity
15,QVQLVESGGGLVQAGGSLRLSCAASGRTFGYNGKGWYRQAPGKERELVAAINSGGNTNYAESVKGRFTISRDNAKNTVYLQMNSLKPEDTAVYYCAKYGTLYEPVPNEYDNWGQGTQVTVSS,low polyreactivity
16,QVQLVESGGGLVQAGGSLRLSCAASGFIFYIYAMGWYRQAPGKEWELVAAISGGGGSTYYAASVKGRFTISRDNAKNTVYLQINSLKPEDTAVSYCAARYDVAWYSKRYSWGQGTQVTVSS,high polyreactivity
17,QVQLVESGGGLVQAGGSIRLSCAASGLIFRYYTMGWYRQAPGKERELVATITKSGSSTYYADSVKGRFTISRDNAKNTVYLQMNSLKPEDTAVYYCAARVTRRYDYWGQGTQLTVSS,high polyreactivity
18,QVQLVESGGGLVQAGGSLRLSCAASGSTYLYYAMGWYRQAPGKEREMVAAIWSDGSTRYADSVKGRFTISRDNAKNTVYLQMNSLKPEDTAVYYCAVYNYWGQGTQVTVSS,low polyreactivity
19,QVQLVESGGGLVQAGGSLRLSCADSGITFSRNAMGWYRQAPGKEMELVATITSGGSTNYADSVKGRFTISRDNAKNTVYLQMNSLKPEDTAVYYCNAVWNTFISGRSYDYWGQGTQVTVSS,low polyreactivity
20,QVQLVESGGGLVQAGGSLRLSCAASGRIFPANDMGWYRQAPGKERELVASIRRGGITYADSVKGRFTISRDNAKNTVYLQMNSLKPEDNAVYYCNADYRGWGYHMDYWGQGTQVTVSS,low polyreactivity
21,QVQLVESGGGLVQAGGSLRLICAASGSIFITNAMGWYRQAPGKEREMVAAISGRGGSTYYADSVKGRFTISRDNAKNTVYLQMNSLKPEDTAVYYCNAYSYRVSGYDYWGQGTQVTVSS,high polyreactivity
